Measurements: US20210130436A1 (published 2021)

Columns and labels:
human CD28 = target: T1, human CD28 (human, UniProt P10747 19-220); test: flow cytometry on Jurkat cells (CD28)
T1 construct: Endogenous CD28 on Jurkat/IL2 reporter cells

human CTLA-4 = target: T2, human CTLA-4 (human, UniProt P16410 36-223); test: flow cytometry on CHO cells stably expressing CTLA4
T2 construct: also called huCTLA4

human PD-L1 = target: T3, human PD-L1 (human, UniProt Q9NZQ7 19-290); test: flow cytometry on CHO cells stably expressing PD-L1
T3 construct: also called huPD-L1; CD274
T3 sequence (Q9NZQ7 19-290): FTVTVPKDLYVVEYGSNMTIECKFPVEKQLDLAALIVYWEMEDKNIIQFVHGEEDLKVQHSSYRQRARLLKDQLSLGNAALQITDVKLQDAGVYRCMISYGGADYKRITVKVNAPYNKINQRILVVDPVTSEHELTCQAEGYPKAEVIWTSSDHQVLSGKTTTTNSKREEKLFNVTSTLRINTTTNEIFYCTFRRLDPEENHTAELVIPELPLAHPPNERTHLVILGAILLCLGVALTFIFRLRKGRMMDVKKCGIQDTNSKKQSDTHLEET

[1] = target: T4, human PD-L1, expressed on CHO cells (human, UniProt Q9NZQ7 19-290); test: flow cytometry on CHO cells stably expressing human PD-L1; PE anti-human Fc
T4 construct: Full-length surface expression construct transduced by lentivirus into CHO cells; also called huPD-L1; CD274
T4 sequence (Q9NZQ7 19-290): as above

[2] = target: T5, human CTLA-4 (CTLA4), expressed on CHO cells (human, UniProt P16410 36-223); test: flow cytometry on CHO cells stably expressing human CTLA-4; PE anti-human Fc
T5 construct: Full-length surface expression construct transduced by lentivirus into CHO cells; also called huCTLA4
T5 sequence (P16410 36-223): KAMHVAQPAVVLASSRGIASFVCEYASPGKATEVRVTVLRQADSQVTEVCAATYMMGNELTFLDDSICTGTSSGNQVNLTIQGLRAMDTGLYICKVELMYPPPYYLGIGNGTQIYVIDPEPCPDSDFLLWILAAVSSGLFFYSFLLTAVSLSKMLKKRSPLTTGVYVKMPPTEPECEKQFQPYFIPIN

[3] = target: T6, CD28 endogenously expressed on Jurkat/IL2 reporter cells (human, UniProt P10747 19-220); test: flow cytometry, Jurkat cells (CD28), Fc fusion at 33.3 nM
T6 construct: whole, on cells; Target on Jurkat cells; also called Jurkats (CD28)

[4] = target: T7, human CTLA4 expressed on CHO cells (human, UniProt P16410 36-223); test: flow cytometry, CHO cells stably expressing CTLA4, Fc fusion at 33.3 nM
T7 construct: whole, on cells; Target on CHO cells stably expressing CTLA4; also called huCTLA4
T7 sequence (P16410 36-223): as above

[5] = target: T8, human PD-L1 expressed on CHO cells (human, UniProt Q9NZQ7 19-290); test: flow cytometry, CHO cells stably expressing PD-L1, Fc fusion at 33.3 nM
T8 construct: whole, on cells; Target on CHO cells stably expressing PD-L1; also called huPD-L1
T8 sequence (Q9NZQ7 19-290): as the sequence (Q9NZQ7 19-290) above

[6] = target: T6, CD28 endogenously expressed on …; test: flow cytometry, Jurkat cells (CD28); MFI relative to WT CD80 ECD-Fc (Abcam)
[7] = target: T8, human PD-L1 expressed on CHO cells; test: flow cytometry; MFI on PD-L1 cells over MFI on CD28 (Jurkat) cells at 33.3 nM
[8] = target: T7, human CTLA4 expressed on CHO cells; test: flow cytometry, CHO cells stably expressing CTLA4; MFI relative to WT CD80 ECD-Fc (Abcam)
[9] = target: T8, human PD-L1 expressed on CHO cells; test: flow cytometry, CHO cells stably expressing PD-L1; MFI relative to WT CD80 ECD-Fc (Abcam)
CD96 = target: T9, CD96 (UniProt P40200 22-585, limits assumed); test: flow cytometry on cells expressing CD96, Fc fusion at 100 nM
T9 construct: whole, on cells
T9 sequence (looked up): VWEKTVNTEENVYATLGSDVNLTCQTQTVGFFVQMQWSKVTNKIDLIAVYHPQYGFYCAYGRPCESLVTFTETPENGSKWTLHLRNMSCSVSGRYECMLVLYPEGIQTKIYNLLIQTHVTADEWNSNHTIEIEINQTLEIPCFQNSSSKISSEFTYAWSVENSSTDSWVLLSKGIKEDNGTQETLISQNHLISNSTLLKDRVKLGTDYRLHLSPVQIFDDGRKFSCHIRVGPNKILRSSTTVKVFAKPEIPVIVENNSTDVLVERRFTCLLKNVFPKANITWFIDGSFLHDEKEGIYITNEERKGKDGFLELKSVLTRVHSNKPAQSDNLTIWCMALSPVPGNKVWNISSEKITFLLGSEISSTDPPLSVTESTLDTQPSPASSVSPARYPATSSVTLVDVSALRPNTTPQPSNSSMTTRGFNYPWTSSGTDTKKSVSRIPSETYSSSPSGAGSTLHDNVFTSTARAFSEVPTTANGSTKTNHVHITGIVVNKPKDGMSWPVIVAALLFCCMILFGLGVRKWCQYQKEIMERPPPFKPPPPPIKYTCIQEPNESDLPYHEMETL

CD226 = target: T10, CD226 (UniProt Q15762 19-336); test: flow cytometry on cells expressing CD226, Fc fusion at 100 nM
T10 construct: whole, on cells
T10 sequence (looked up): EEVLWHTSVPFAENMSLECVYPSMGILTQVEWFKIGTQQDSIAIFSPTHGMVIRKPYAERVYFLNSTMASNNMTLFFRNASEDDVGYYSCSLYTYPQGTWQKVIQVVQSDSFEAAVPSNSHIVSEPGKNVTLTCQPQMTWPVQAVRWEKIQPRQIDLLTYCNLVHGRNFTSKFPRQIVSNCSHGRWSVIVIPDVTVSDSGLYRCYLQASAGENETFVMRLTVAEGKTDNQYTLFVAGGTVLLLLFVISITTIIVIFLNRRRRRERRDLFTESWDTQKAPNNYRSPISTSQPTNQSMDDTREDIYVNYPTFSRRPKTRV

TIGIT = target: T11, TIGIT (UniProt Q495A1 22-244); test: flow cytometry on cells expressing TIGIT, Fc fusion at 100 nM
T11 construct: whole, on cells
T11 sequence (looked up): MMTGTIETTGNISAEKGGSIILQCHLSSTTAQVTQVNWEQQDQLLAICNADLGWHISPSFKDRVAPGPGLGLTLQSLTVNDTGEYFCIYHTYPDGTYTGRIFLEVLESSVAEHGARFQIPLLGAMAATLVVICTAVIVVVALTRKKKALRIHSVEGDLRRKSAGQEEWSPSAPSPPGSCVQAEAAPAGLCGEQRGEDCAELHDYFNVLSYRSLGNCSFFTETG

T2 sequence (P16410 36-223): as the sequence (P16410 36-223) above

B1: CD80 E35D/M47V/N48K/V68M/K89N IgV-Fc, (EAAAK)3 linker (Fc fusion, not shown: a dimerising Fc or GST)
chain: VIHVTKEVKEVATLSCGHNVSVEELAQTRIYWQKDKKMVLTMMSGDVKIWPEYKNRTIFDITNNLSIMILALRPSDEGTYECVVLKYENDAFKREHLAEVTLSVKADEAAAKEAAAKEAAAK
MFI at 33.3 nM (human CD28): 1280 MFI | MFI at 33.3 nM (human CTLA-4): 27100 MFI | MFI at 33.3 nM (human PD-L1): 24500 MFI

B2: variant CD80 IgV-Fc E35D/M43I/M47V/K89N (Fc fusion, not shown: small tags and cut ends; a dimerising Fc or GST)
chain: VIHVTKEVKEVATLSCGHNVSVEELAQTRIYWQKDKKMVLTMISGDVNIWPEYKNRTIFDITNNLSIVILALRPSDEGTYECVVLKYENDAFKREHLAEVTLSVKAD
notes: Fc fusion of the variant IgV
MFI at 33.3 nM [1]: 19200 MFI | MFI at 33.3 nM [2]: 278000 MFI

B3: variant CD80 IgV-Fc E35D/M38T/M43V/M47V/N48R/L85Q (Fc fusion, not shown: small tags and cut ends; a dimerising Fc or GST)
chain: VIHVTKEVKEVATLSCGHNVSVEELAQTRIYWQKDKKTVLTMVSGDVRIWPEYKNRTIFDITNNLSIVILALRPSDEGTYECVVQKYEKDAFKREHLAEVTLSVKAD
notes: Fc fusion of the variant IgV
MFI at 33.3 nM [1]: 21800 MFI | MFI at 33.3 nM [2]: 204000 MFI

B4: variant CD80 IgV-Fc E35D/M47V/T62A/A71D/K93E (Fc fusion, not shown: small tags and cut ends; a dimerising Fc or GST)
chain: VIHVTKEVKEVATLSCGHNVSVEELAQTRIYWQKDKKMVLTMMSGDVNIWPEYKNRTIFDIANNLSIVILDLRPSDEGTYECVVLKYEKDAFEREHLAEVTLSVKAD
notes: Fc fusion of the variant IgV
MFI at 33.3 nM [1]: 693 MFI | MFI at 33.3 nM [2]: 226000 MFI

B5: variant CD80 IgV-Fc Q33L/E35D/M43I/Y53F/T62S/L85Q (Fc fusion, not shown: small tags and cut ends; a dimerising Fc or GST)
chain: VIHVTKEVKEVATLSCGHNVSVEELAQTRIYWLKDKKMVLTMISGDMNIWPEFKNRTIFDISNNLSIVILALRPSDEGTYECVVQKYEKDAFKREHLAEVTLSVKAD
notes: Fc fusion of the variant IgV
MFI at 33.3 nM [1]: 72100 MFI | MFI at 33.3 nM [2]: 3980 MFI

B6: variant CD80 IgV-Fc Q33R/E35D/M47V/N48K/L85M/F92L (Fc fusion, not shown: small tags and cut ends; a dimerising Fc or GST)
chain: VIHVTKEVKEVATLSCGHNVSVEELAQTRIYWRKDKKMVLTMMSGDVKIWPEYKNRTIFDITNNLSIVILALRPSDEGTYECVVMKYEKDALKREHLAEVTLSVKAD
notes: Fc fusion of the variant IgV
MFI at 33.3 nM [1]: 21400 MFI | MFI at 33.3 nM [2]: 2680 MFI

B7: CD80 N48K/V68M IgV-Fc (Fc fusion, not shown: small tags and cut ends; a dimerising Fc or GST)
chain: VIHVTKEVKEVATLSCGHNVSVEELAQTRIYWQKEKKMVLTMMSGDMKIWPEYKNRTIFDITNNLSIMILALRPSDEGTYECVVLKYEKDAFKREHLAEVTLSVKAD
MFI at 33.3 nM [3]: 118 MFI | MFI at 33.3 nM [4]: 2340 MFI | MFI at 33.3 nM [5]: 754 MFI | Fold change to WT CD80 [6]: 0.2 fold | Ratio of PDL1:CD28 [7]: 6.4 ratio | Fold change to WT CD80 [8]: 0.1 fold | Fold change to WT CD80 [9]: 5.9 fold

B8: CD155 S42A variant IgV-Fc fusion (Fc fusion, not shown: a dimerising Fc or GST)
chain: WPPPGTGDVVVQAPTQVPGFLGDSVTLPCYLQVPNMEVTHVAQLTWARHGESGSMAVFHQTQGPSYSESKRLEFVAARLGAELRNASLRMFGLRVEDEGNYTCLFVTFPQGSRSVDIWLRVL
MFI at 100 nM (CD96): 1620 MFI | MFI at 100 nM (CD226): 2190 MFI | MFI at 100 nM (TIGIT): 1930 MFI

B9: CD155 S42C/S52M/Q62F variant IgV-Fc fusion (Fc fusion, not shown: a dimerising Fc or GST)
chain: WPPPGTGDVVVQAPTQVPGFLGDSVTLPCYLQVPNMEVTHVCQLTWARHGEMGSMAVFHQTFGPSYSESKRLEFVAARLGAELRNASLRMFGLRVEDEGNYTCLFVTFPQGSRSVDIWLRVL
MFI at 100 nM (CD96): 1480 MFI | MFI at 100 nM (CD226): 2080 MFI | MFI at 100 nM (TIGIT): 1860 MFI

B10: CD155 S42G/S52L/Q62F/L104Q variant IgV-Fc fusion (Fc fusion, not shown: a dimerising Fc or GST)
chain: WPPPGTGDVVVQAPTQVPGFLGDSVTLPCYLQVPNMEVTHVGQLTWARHGELGSMAVFHQTFGPSYSESKRLEFVAARLGAELRNASLRMFGLRVEDEGNYTCQFVTFPQGSRSVDIWLRVL
MFI at 100 nM (CD96): 1640 MFI | MFI at 100 nM (CD226): 2160 MFI | MFI at 100 nM (TIGIT): 1920 MFI

B11: CD155 S42G/S52Q/L104E/G111R variant IgV-Fc fusion (Fc fusion, not shown: a dimerising Fc or GST)
chain: WPPPGTGDVVVQAPTQVPGFLGDSVTLPCYLQVPNMEVTHVGQLTWARHGEQGSMAVFHQTQGPSYSESKRLEFVAARLGAELRNASLRMFGLRVEDEGNYTCEFVTFPQRSRSVDIWLRVL
MFI at 100 nM (CD226): 2020 MFI | MFI at 100 nM (TIGIT): 2010 MFI

B12: CD155 S42L variant IgV-Fc fusion (Fc fusion, not shown: a dimerising Fc or GST)
chain: WPPPGTGDVVVQAPTQVPGFLGDSVTLPCYLQVPNMEVTHVLQLTWARHGESGSMAVFHQTQGPSYSESKRLEFVAARLGAELRNASLRMFGLRVEDEGNYTCLFVTFPQGSRSVDIWLRVL
MFI at 100 nM (CD96): 1620 MFI | MFI at 100 nM (CD226): 2190 MFI | MFI at 100 nM (TIGIT): 1930 MFI

B13: CD155 S42N variant IgV-Fc fusion (Fc fusion, not shown: a dimerising Fc or GST)
chain: WPPPGTGDVVVQAPTQVPGFLGDSVTLPCYLQVPNMEVTHVNQLTWARHGESGSMAVFHQTQGPSYSESKRLEFVAARLGAELRNASLRMFGLRVEDEGNYTCLFVTFPQGSRSVDIWLRVL
MFI at 100 nM (CD96): 1690 MFI | MFI at 100 nM (CD226): 1910 MFI | MFI at 100 nM (TIGIT): 1820 MFI

B14: CD155 S42N/S52E/V57L/L104E variant IgV-Fc fusion (Fc fusion, not shown: a dimerising Fc or GST)
chain: WPPPGTGDVVVQAPTQVPGFLGDSVTLPCYLQVPNMEVTHVNQLTWARHGEEGSMALFHQTQGPSYSESKRLEFVAARLGAELRNASLRMFGLRVEDEGNYTCEFVTFPQGSRSVDIWLRVL
MFI at 100 nM (CD96): 1540 MFI | MFI at 100 nM (CD226): 1740 MFI | MFI at 100 nM (TIGIT): 1780 MFI

B15: CD155 S42V/S52E variant IgV-Fc fusion (Fc fusion, not shown: a dimerising Fc or GST)
chain: WPPPGTGDVVVQAPTQVPGFLGDSVTLPCYLQVPNMEVTHVVQLTWARHGEEGSMAVFHQTQGPSYSESKRLEFVAARLGAELRNASLRMFGLRVEDEGNYTCLFVTFPQGSRSVDIWLRVL
MFI at 100 nM (CD96): 2530 MFI | MFI at 100 nM (CD226): 2270 MFI | MFI at 100 nM (TIGIT): 2060 MFI
